According to the Immune Epitope Database (IEDB):
pKd: −log10 of the molar value. One block for each sequence: values may come before it.

Assays:
HLA-B*58:01 [1] = experiment: IEDB peptide-MHC binding, purified MHC/competitive/radioactivity; filed as Kd, often an IC50 or EC50 that approximates it; ≥ and ≤ were set here for values at or beyond the usual limits of such assays
HLA-B*57:01 = experiment: as above
HLA-A*26:01 [2] = experiment: as above
HLA-A*01:01 [3] = experiment: as above; details: source organism: Dengue virus 1 Brazil/97-11/1997
HLA-A*24:02 = experiment: as above; details: source organism: Dengue virus 1 Brazil/97-11/1997
HLA-A*23:01 = experiment: as above; details: source organism: Dengue virus 1 Brazil/97-11/1997
HLA-A*32:01 = experiment: as above; details: source organism: Dengue virus 2 Jamaica/1409/1983
HLA-A*68:02 = experiment: as above
HLA-A*02:03 = experiment: as above
HLA-A*02:01 [4] = experiment: as above
HLA-A*02:17 = experiment: as above
HLA-B*53:01 = experiment: as above; details: source organism: Dengue virus 4 Philippines/H241/1956
HLA-A*24:03 = experiment: IEDB peptide-MHC binding, purified MHC/direct/fluorescence; filed as Kd, often an IC50 or EC50 that approximates it; ≥ and ≤ were set here for values at or beyond the usual limits of such assays
HLA-A*30:01 = experiment: IEDB peptide-MHC binding, purified MHC/competitive/radioactivity; filed as Kd, often an IC50 or EC50 that approximates it; ≥ and ≤ were set here for values at or beyond the usual limits of such assays; details: source organism: Dengue virus 2 Peru/IQT2913/1996
HLA-A*02:06 = experiment: as above; details: source organism: Dengue virus 2 Peru/IQT2913/1996
HLA-B*27:03 = experiment: IEDB peptide-MHC binding, purified MHC/competitive/fluorescence; filed as Kd, often an IC50 or EC50 that approximates it; ≥ and ≤ were set here for values at or beyond the usual limits of such assays; details: source organism: Homo sapiens
HLA-A*26:01 [5] = experiment: as above; details: source organism: Homo sapiens
HLA-A*02:01 [6] = experiment: as above; details: source organism: Homo sapiens
HLA-B*51:01 = experiment: as above; details: source organism: Homo sapiens
HLA-B*39:01 = experiment: as above; details: source organism: Homo sapiens
HLA-A*69:01 [7] = experiment: as above; details: source organism: Homo sapiens
HLA-B*46:01 = experiment: as above; details: source organism: Homo sapiens
HLA-A*01:01 [8] = experiment: IEDB peptide-MHC binding, purified MHC/direct/fluorescence; filed as Kd, often an IC50 or EC50 that approximates it; ≥ and ≤ were set here for values at or beyond the usual limits of such assays
HLA-B*07:02 = experiment: as above; details: source organism: Salmonella enterica subsp. enterica serovar Typhimurium
HLA-B*44:02 = experiment: as above; details: source organism: Salmonella enterica subsp. enterica serovar Typhimurium
HLA-A*11:01 = experiment: as above; details: source organism: Salmonella enterica subsp. enterica serovar Typhimurium
HLA-B*27:05 = experiment: as above; details: source organism: Salmonella enterica subsp. enterica serovar Typhimurium
HLA-B*08:01 = experiment: as above; details: source organism: Salmonella enterica subsp. enterica serovar Typhimurium
HLA-B*15:01 = experiment: as above; details: source organism: Salmonella enterica subsp. enterica serovar Typhimurium
HLA-B*40:01 = experiment: as above; details: source organism: Salmonella enterica subsp. enterica serovar Typhimurium
HLA-A*26:01 [9] = experiment: as above; details: source organism: Salmonella enterica subsp. enterica serovar Typhimurium
HLA-A*02:01 [10] = experiment: as above; details: source organism: Salmonella enterica subsp. enterica serovar Typhimurium
HLA-A*03:01 = experiment: as above; details: source organism: Salmonella enterica subsp. enterica serovar Typhimurium
HLA-B*58:01 [11] = experiment: as above; details: source organism: Salmonella enterica subsp. enterica serovar Typhimurium
HLA-A*31:01 = experiment: as above; details: source organism: Salmonella enterica subsp. enterica serovar Typhimurium
HLA-A*69:01 [12] = experiment: as above; details: source organism: Salmonella enterica subsp. enterica serovar Typhimurium
[13] = source organism: Dengue virus 4 Philippines/H241/1956
[14] = source organism: Dengue virus 1 Brazil/97-11/1997
[15] = source organism: Dengue virus 2 Jamaica/1409/1983
[16] = source organism: Dengue virus 2 Thailand/NGS-C/1944
[17] = source organism: Salmonella enterica subsp. enterica serovar Typhimurium

Sequence: VASAGISYKD
- pKd (HLA-B*58:01 [1]; [13]): 5.41
- pKd (HLA-B*57:01; [13]): 5.33

Sequence: VTAKWLWGF
- pKd (HLA-A*26:01 [2]; [14]): 4.89
- pKd (HLA-B*58:01 [1]; [14]): 7.23
- pKd (HLA-A*01:01 [3]): 4.86
- pKd (HLA-A*24:02): 6.62
- pKd (HLA-A*23:01): 6.38

Sequence: LSSKPEFCIK
- pKd (HLA-B*58:01 [1]; [13]): 4.97

Sequence: RVLNLVENW
- pKd (HLA-B*58:01 [1]; [15]): 8.87
- pKd (HLA-A*32:01): 7.67
- pKd (HLA-B*57:01; [15]): 8.61

Sequence: TIMAAILAYT
- pKd (HLA-A*68:02; [15]): 7.06
- pKd (HLA-A*02:03; [15]): 8.03
- pKd (HLA-A*02:01 [4]; [15]): 7.48
- pKd (HLA-A*02:17; [15]): 4.91

Sequence: ILIGVIITW
- pKd (HLA-B*58:01 [1]; [15]): 5.82
- pKd (HLA-A*32:01): ≤ 4.63
- pKd (HLA-B*57:01; [15]): 6.45

Sequence: IGLTSRATW
- pKd (HLA-B*58:01 [1]; [15]): 8.21
- pKd (HLA-B*57:01; [15]): 8.16

Sequence: FVIDNVHTW
- pKd (HLA-B*53:01): 8.91
- pKd (HLA-A*26:01 [2]; [13]): 7.26
- pKd (HLA-B*58:01 [1]; [13]): 7.75

Sequence: LYILGLFKF
- pKd (HLA-A*24:03; source organism: Orthohantavirus hantanense): 6.94

Sequence: LSSLLKNDVP
- pKd (HLA-B*58:01 [1]; [14]): 6.09
- pKd (HLA-B*57:01; [14]): 5.14

Sequence: GMIIMLIPTV
- pKd (HLA-A*30:01): 4.90
- pKd (HLA-A*02:06): 7.02
- pKd (HLA-A*02:03; source organism: Dengue virus 2 Peru/IQT2913/1996): 8.35
- pKd (HLA-A*02:01 [4]; [16]): 7.15
- pKd (HLA-A*02:17; [16]): 5.18

Sequence: YTMCSGKFSI
- pKd (HLA-A*68:02; [13]): 8.84
- pKd (HLA-A*02:01 [4]; [13]): 7.10
- pKd (HLA-A*02:17; [13]): 6.27

- pKd (HLA-B*27:03): ≤ 4.70
- pKd (HLA-A*26:01 [5]): ≤ 4.70
- pKd (HLA-A*02:01 [6]): ≤ 4.70
- pKd (HLA-B*51:01): ≤ 4.70
- pKd (HLA-B*39:01): ≤ 4.70
- pKd (HLA-A*69:01 [7]): ≤ 4.70
- pKd (HLA-B*46:01): ≤ 4.70
- pKd (HLA-A*01:01 [8]; source organism: Mus musculus): 8.00
Sequence: WSTIWRQLY

Sequence: NSDYMMWVG
- pKd (HLA-B*07:02): ≤ 4.70
- pKd (HLA-B*44:02): ≤ 4.70
- pKd (HLA-A*11:01): ≤ 4.70
- pKd (HLA-B*27:05): ≤ 4.70
- pKd (HLA-B*08:01): ≤ 4.70
- pKd (HLA-B*15:01): ≤ 4.70
- pKd (HLA-B*40:01): ≤ 4.70
- pKd (HLA-A*26:01 [9]): ≤ 4.70
- pKd (HLA-A*02:01 [10]): ≤ 4.70
- pKd (HLA-A*24:03; [17]): ≤ 4.70
- pKd (HLA-A*03:01): ≤ 4.70
- pKd (HLA-B*58:01 [11]): ≤ 4.70
- pKd (HLA-A*31:01): ≤ 4.70
- pKd (HLA-A*01:01 [8]; [17]): ≤ 4.70
- pKd (HLA-A*69:01 [12]): ≤ 4.70
